From article PMC4601788

Columns and labels:
[1] = biological target: rLiPABP (poly(A)-binding protein) (Leishmania infantum) (UniProt A4IBV3); test: ELONA
[2] = biological target: Flag-LiPABP (Leishmania infantum) (UniProt A4IBV3); test: pull-down
[3] = biological target: endogenous LiPABP (eLiPABP) (Leishmania infantum) (UniProt A4IBV3); test: competition
[4] = biological target: Myc-LiPABP (Leishmania infantum) (UniProt A4IBV3); test: competition

Row | Sequence | Kd [1] [nM] | binding signal (% of total Flag-LiPABP recovered) [2] | binding signal (% reduction of poly(A) binding) [3] | binding signal (% reduction of poly(A) binding) [4]
1 | GCGGATGAAGACTGGTGTCCAGAGTGAACACAAAGAAATTGAAATACGTAAGCTCCGGGCCCTAAATACGAGCAAC [ApPABP#7] | 6 | > 75 | – | –
2 | GCGGATGAAGACTGGTGTGGACAGTTCTACGAGGATTACGCTGTTACTAAGTGTGGGGGCCCTAAATACGAGCAAC [ApPABP#3] | 5.4 | > 75 | – | –
3 | GTTGCTCGTATTTAGGGCGGCCCCCTCCTCCCTCCCCCACCCGACACTATTCCCCCCCACACCAGTCTTCATCCGC [ApPABP#11] | 10.8 | < 50 | 30 | 80
